For assay [1], the target named is exendin-asp3 tetramethylrhodamine conjugate (tetramethylrhodamine (TMR) fluorophore (conjugation position shown in Figure 2A)).
For assay [2], the target named is exendin-phe1 tetramethylrhodamine conjugate (tetramethylrhodamine (TMR) fluorophore (conjugation position shown in Figure 2A)).
In assay [3] the target is exendin-asp3 Cy5 conjugate (Cy5 fluorophore (conjugation position shown in Figure 2A)).
Assay [4] concerns the target exendin-phe1 Cy5 conjugate (Cy5 fluorophore (conjugation position shown in Figure 2A)).

B1: mouse glucagon-like peptide-1 receptor, untagged (receptor)
chain: GPRPQGTTVSLSETVQKWREYRRQCQRFLTEAPLLATGLFCNRTFDDYACWPDGPPGSFVNVSCPWYLPWASSVLQGHVYRFCTAEGLWLHKDNSSLPWRDLSECEESKRGERNFPEEQLLSLYIIYTVGYALSFSALVIASAILVGFRHLHCTRNYIHLNLFASFILRALSVFIKDAALKWMYSTAAQQHQWDGLLSYQDSLGCRLVFLLMQYCVAANYYWLLVEGVYLYTLLAFSVFSEQRIFKLYLSIGWGVPLLFVIPWGIVKYLYEDEGCWTRNSNMNYWLIIRLPILFAIGVNFLIFIRVICIVVSKLKANLMCKTDIKCRLAKSTLTLIPLLGTHEVIFAFVMDEHARGTLRFIKLFTELSFTSFQGLMVAILYCFVNNEVQMEFRKCWERWRLEHLNIQRDCSMKPLKCPTSSVSSGATVGSSVYAATCQSSYS
A word on the Kd: it is the free concentration of one partner at which half of the binding sites on the other are occupied at equilibrium, for simple one-to-one binding. The low end stands for a tighter complex, the high end for a looser complex. For B1, the equilibrium dissociation constant (Kd) in assay [1] came out at 5.9 nM; in assay [2] it was 6.7 nM; in assay [3] it was 2.7 nM.

B2: human glucagon-like peptide-1 receptor, untagged (receptor)
chain: RPQGATVSLWETVQKWREYRRQCQRSLTEDPPPATDLFCNRTFDEYACWPDGEPGSFVNVSCPWYLPWASSVPQGHVYRFCTAEGLWLQKDNSSLPWRDLSECEESKRGERSSPEEQLLFLYIIYTVGYALSFSALVIASAILLGFRHLHCTRNYIHLNLFASFILRALSVFIKDAALKWMYSTAAQQHQWDGLLSYQDSLSCRLVFLLMQYCVAANYYWLLVEGVYLYTLLAFSVLSEQWIFRLYVSIGWGVPLLFVVPWGIVKYLYEDEGCWTRNSNMNYWLIIRLPILFAIGVNFLIFVRVICIVVSKLKANLMCKTDIKCRLAKSTLTLIPLLGTHEVIFAFVMDEHARGTLRFIKLFTELSFTSFQGLMVAILYCFVNNEVQLEFRKSWERWRLEHLHIQRDSSMKPLKCPTSSLSSGATAGSSMYTATCQASCS
Consider B2, for which the Kd is 18.5 nM in assay [2] and 2.8 nM in assay [3].

B3: GLP-1R endogenously expressed in INS-1 832/3 clonal rat β-cells (receptor)
chain: GPRPQGATVSLSETVQKWREYRHQCQRFLTEAPLLATGLFCNRTFDDYACWPDGPPGSFVNVSCPWYLPWASSVLQGHVYRFCTAEGIWLHKDNSSLPWRDLSECEESKQGERNSPEEQLLSLYIIYTVGYALSFSALVIASAILVSFRHLHCTRNYIHLNLFASFILRALSVFIKDAALKWMYSTAAQQHQWDGLLSYQDSLGCRLVFLLMQYCVAANYYWLLVEGVYLYTLLAFSVFSEQRIFKLYLSIGWGVPLLFVIPWGIVKYLYEDEGCWTRNSNMNYWLIIRLPILFAIGVNFLVFIRVICIVIAKLKANLMCKTDIKCRLAKSTLTLIPLLGTHEVIFAFVMDEHARGTLRFVKLFTELSFTSFQGFMVAVLYCFVNNEVQMEFRKSWERWRLERLNIQRDSSMKPLKCPTSSVSSGATVGSSVYAATCQNSCS
Regarding B3, the Kd was 12.3 nM in assay [2] and 0.7 nM in assay [4].

The values above are taken from publication PMC12808597 (2025).
